Data published in patent US9664676B2, “RNA sequences that induce fluorescence of small molecule fluorophores” (Cornell University, priority 2013, dated 2017).
*1 amine or outer side, *2 acyl side, *3 side chain or, on linkers, in order; H or OH if unused. Where a SMILES comes first, the peptide text is derived from it. Bridges are numbered along the chain shown (N, C = ends). Roman numbers before positions name the chains, in order. [ ]: non-standard residue; d: D form. Actinocin(9to1) = Cc1c2oc3c(C)ccc(C(=O)[*:1])c3nc-2c(C(=O)[*:2])c(N)c1=O; NMeV = CN[C@H](C(=O)O)C(C)C; Sar = CNCC(=O)O

Key:
[1] = system: COS-7 cells; assay: Live cell imaging of (CGG)60-Spinach / (CGG)60-Spinach2 in COS-7 cells; type: cell-based; conditions: at 8 h, 1 μg/ml
Description: Transfection of COS-7 Cells and Live Cell Imaging: COS-7 cells (ATCC-CRL-1651) were cultured and passaged in DMEM supplemented with 50 units of penicillin and 50 μg of streptomycin per milliliter. […] Cells were imaged in CO2-independent medium (Invitrogen) supplemented with L-glutamine. At 30 min-1 h before imaging, medium was supplemented with 25 mM HEPES, 5 mM MgSO4, 1 μg/ml Hoechst 33342 (when appropriate) and 20 μM DFHBI or vehicle. […] Spinach was imaged with a filter cube typically used for fluorescein or EGFP, with a sputter-coated excitation filter 470/40 nm, dichroic mirror 495 nm (long-pass), and emission filter 525/50 (Chroma Technology). DsRed-Max and mCherry were imaged using a filter cube typically used for Texas Red, with a sputter coated excitation filter 560/40 nm and emission filter 630/75 nm (Chroma Technology). Background intensity was subtracted from all pixel intensity measurements. Image analyses were completed with NIS-Elements AR 3.2 (Nikon). Drug treatments were carried out as specified. […] DMSO was added to a final concentration of 0.1% for vehicle treatments. […] After 2 h, the transfection medium was replaced with imaging medium containing DFHBI.

[2] = system: COS-7 cells; assay: Analysis of DFHBI cell permeability; type: in vitro ADME; conditions: mammalian cells, 20 μM DFHBI
Description: Analysis of DFHBI Cell Permeability: COS-7 cells were transfected with pCDNA-60CGG-Spinach2. 24 h after transfection, cells were imaged in medium supplemented with 25 mM HEPES, 5 mM MgSO4, 1 μg/ml Hoechst 33342 and 20 μM DFHBI. Images were acquired for Hoechst and Spinach2 signals every 5 min for 1 h for 20 cells. All signals were first normalized to area and then normalized to the highest signal for a given nucleus to determine the time for maximal signal to be reached.

[3] = Folding measurements with DFHBI-1T; type: physicochemical; conditions: in vitro folding assay
Description: Briefly, fluorescence intensity of two solutions were compared: the one having excess of the dye and limiting amount of RNA and the other with excess of RNA and limiting amount of the dye. 1 μM of 1T (or RNA) and 20 μM of RNA (or 1T) was used. Signal from the first condition (limiting RNA) was divided by the signal from the second condition (limiting dye) to determine the fraction folded. To measure folding in a context of different flanking sequences RNA was generated from separate dsDNA fragments. These fragments were PCR amplified to have β-actin, 5S rRNA and 7SK RNA sequences on either or both sides of Broccoli. The folding assay then proceeded as described above.
(§1) To measure the fluorescence of aptamer-fluorophore complexes, an approach that overcomes potential confounding effects of incomplete RNA folding was used. The fluorescence of RNA-fluorophore complexes can be measured in either of two ways: using “excess RNA” or “excess fluorophore” (Ponchon et al., “Recombinant RNA Technology: the tRNA Scaffold,” Nat. Methods 4(7): 571-6 (2007), which is hereby incorporated by reference in its entirety). In an “excess RNA” experiment enough RNA was added to ensure that all the fluorophore (e.g. 1 μM) is bound to the RNA even if a sizeable portion of the RNA is unfolded. As a result, one can be confident that a 1 μM RNA-fluorophore complex is present, and one can therefore calculate the “molar brightness,” the fluorescence of a specific concentration of RNA-fluorophore complex independent of RNA folding. In the case of excess fluorophore experimental conditions were reversed and 1 μM of RNA was used with a vast excess of the fluorophore. In this case, the amount of RNA-fluorophore complex is highly dependent on the amount of RNA that is folded.

[4] = In vitro fluorescence activation of DFHBI-1T by 29-1 and truncation mutants; type: biochemical; conditions: bound to DFHBI-1T
From the text: (§2) In Vitro Characterization of Aptamers: dsDNA from the brightest bacterial cells in a library was PCR amplified from eluted plasmids. Truncation, deletion and point mutation mutants were generated from dsDNAs PCR amplified based on respective ssDNA templates (Protein and Nucleic Acid Facility, Stanford University Medical Center). Primers were designed so the PCR product contained T7 promoter sequence. When indicated, dsDNA or ssDNA also contained tRNA scaffold part. PCR products were then purified with PCR purification columns (Qiagen) and in vitro transcribed utilizing AmpliScribe T7-Flash Transcription Kit (Epicenter). RNA was purified using Bio-Spin columns (Bio-Rad), and quantified using both absorbance values and the Quant-iT RiboGreen RNA Assay Kit (Life Technologies).
All in vitro RNA properties were measured in 40 mM HEPES pH 7.4, 100 mM KCl, 1 mM MgCl2 buffer unless specified separately. All values presented are averaging of at least three independent experiments, error bars are standard deviations.
as §1

[5] = Fluorescence of aptamers bound to DFHO; type: biochemical
Description: To explore this phenomenon further, a library containing over 10 million mutants of this sequence was prepared. Each of the sequences was individually expressed in E. coli bacteria. The bacteria was incubated with the fluorophore DFHO and then sorted based on their fluorescent signal on a fluorescence-activated cell sorting (FACS) instrument. Analysis of the mutations introduced into the 29-1 aptamer allowed prediction of the core sequence necessary for binding DFHO. The possibility that the core binding sequence for DFHO fluorophore is the same as for the DFHBI fluorophore was also considered. The core binding sequence for DFHBI fluorophore is identified in preceding Example 21.

[6] = In vitro fluorescence activation of DFHBI by 29-1; type: biochemical; conditions: bound to DFHBI
From the text: as §2
All in vitro RNA properties were measured in 40 mM HEPES pH 7.4, 100 mM KCl, 1 mM MgCl2 buffer unless specified separately. […]
To measure the fluorescence of aptamer-fluorophore complexes, an approach that overcomes potential confounding effects of incomplete RNA folding was used. The fluorescence of RNA-fluorophore complexes can be measured in either of two ways: using “excess RNA” or “excess fluorophore” (Ponchon et al., “Recombinant RNA Technology: the tRNA Scaffold,” Nat. Methods 4(7): 571-6 (2007), which is hereby incorporated by reference in its entirety). […]

[7] = system: E. coli; assay: Fluorescence measurements of E. coli (colonies, suspensions) expressing aptamers with DFHBI-1T; type: cell-based, Escherichia coli; conditions: tRNA fusions, suspension/plate reader, DFHBI-1T
Description: Fluorescence Measurements of E. coli: Fluorescence measurements of E. coli were done in two general ways. To assess fluorescence brightness of bacterial colonies on a plate Acella or LMG194 strains cells were transferred to a new LB/agar dish with respective antibiotic and allowed to grow overnight at 37° C. Typically four to six colonies for the same aptamer were grown on the same plate to provide statistical data. These plates already contained 40 μM DFHBI-1T (or DFHBI) and 0.2% arabinose (in case of LMG194 strain). When Acella strain was used, 1 mM IPTG was added the next morning and incubation was continued for four to six hours more at 37° C. Bacterial colonies were then imaged under ChemiDoc MP imager as described above and images were processed in ImageJ program.
To measure fluorescence of bacterial cell suspensions BL21 Star (DE3) (Life Technologies) strain and pET28c-based expression plasmids were used. This combination provided the strongest signal. Fresh colony was inoculated into LB media with kanamycin and allowed to grow overnight at 37° C. to OD600 0.4. The cells were then induced with addition of 1 mM IPTG for 2-4 h at 37° C. After induction, cells were normalized for cell density and incubated with 400 μM DFHBI-1T. Cells were then measured for total fluorescence using a Genios Pro plate reader at 465 nm excitation and 535 nm emission. All values were normalized for slightly different excitation and emission spectra of Spinach2 and Broccoli.

[8] = In-gel imaging of tBroccoli and tdBroccoli (DFHBI-1T / SYBR Gold staining); type: biochemical
Description: In-Gel Imaging of Spinach-Containing RNAs: Total bacterial RNA was purified using Trizol LS reagent (Life Technologies) following the manufacturer's protocol. Typically, 200-500 ng of total RNA or 50-100 ng of in vitro transcribed RNA was loaded into a well of precast 6% TBE-Urea Gel (Life Technologies) and ran at 270-300 V in 1×TBE buffer. RiboRuler Low Range RNA Ladder (Thermo Scientific) was used as band size standard.
After the gel was run to completion, the gel was washed 3×5 min with water and then stained for 30 min in 10 μM DFHBI or DFHBI-1T in buffer containing 40 mM HEPES pH 7.4, 100 mM KCl, 1 mM MgCl2. Then gel was imaged using a ChemiDoc MP with 470/30 nm excitation and 532/28 nm emission. Next, to see all the RNA in the sample, the gel was again washed 3×5 min with water followed by staining for 30 min with SYBR Gold (or Green) dye (Life Technologies) diluted 1/10000 in TBE buffer. Then gel was imaged under the same instrument using preset SYBR Gold (or Green) channel (302 nm excitation and 590/110 nm emission). Gel bands intensities were quantified in Image Lab 5.0 software (Bio-Rad). The bacterial 5S rRNA band was used for loading normalization.

[9] = system: HEK293T cells; assay: Flow cytometry of HEK293T cells expressing 5S rRNA-aptamer fusions with DFHBI-1T; type: cell-based
Description: FIG. 24 illustrates the quantification of the flow cytometry analysis of aptamers expression in mammalian cells. To compare specific aptamers' brightness in mammalian cells, HEK293T cells were transfected with two plasmids: one expressing aptamer (with or without tRNA) fused to 5S rRNA and another expressing mCherry fluorescent protein. Cells were then treated with 40 μM DFHBI-1T and analyzed on FACSAria III instrument in two channels: green (ex=488 nm; em=525±50 nm) and red (ex=561 nm and em=610±20). For quantification, mean fluorescent signal of the non-negative population was calculated and then mean fluorescent signal of the negative population was subtracted from it to assess specific, not background fluorescent signal. Finally, this number was multiplied by the percentage of the non-negative population to provide the total fluorescent signal of the non-negative population. These numbers are plotted on the bar graph above. Where indicated, cells were also pre-treated with 5 mM MgSO4. Error bar indicates robust SD calculated by FlowJo program, used for data analysis.
Imaging 5S-tBroccoli and 5S-t-tdBroccoli: Plasmids were transfected into HEK293T cell using FuGENE HD reagent (Promega) following manufacture's protocol. Cell imaging was carried out as previously described for 5S-Spinach (Paige et al., “RNA Mimics of Green Fluorescent Protein,” Science 333(6042): 642-6 (2011), which is hereby incorporated by reference in its entirety) with DFHBI-1T instead of DFHBI. […]
Flow cytometry was used to quantify average brightness of tRNA. Transfected cells were analyzed in two channels: green (ex=488 nm; em=525±50 nm) and red (ex=561 nm; em=610±20). […] As evidenced from FIG. 14A, 5S-tBroccoli and 5S-tdBroccoli are clearly detectable in the green fluorescence channel and this specific signal appears only upon cells treatment with DFHBI-1T (FIG. 23).

Cc1c2oc3c(C)ccc(C(=O)N[C@@H]4C(=O)N[C@H](C(C)C)C(=O)N5CCC[C@H]5C(=O)N(C)CC(=O)N(C)[C@@H](C(C)C)C(=O)O[C@@H]4C)c3nc-2c(C(=O)N[C@@H]2C(=O)N[C@H](C(C)C)C(=O)N3CCC[C@H]3C(=O)N(C)CC(=O)N(C)[C@@H](C(C)C)C(=O)O[C@@H]2C)c(N)c1=O [actinomycin D] (I: T[dV]P[Sar][NMeV] / II: T[dV]P[Sar][NMeV]; ester I:1-I:C, II:1-II:C; linker I:N-II:N via Actinocin(9to1))
cytotoxicity in COS-7 cells [1]: cytotoxicity was observed

CC1=NC(=Cc2cc(F)c(O)c(F)c2)C(=O)N1C [DFHBI, 4-(3,5-difluoro-4-hydroxybenzylidene)-1,2-dimethyl-imidazol-5-one]
time to maximal fluorescence (ability to enter cells) [2]: ~30 min

B1: 29-1: 99-nucleotide RNA aptamer from SELEX-FACS, SEQ ID NO: 3 (nucleic acid)
chain: GGAGACGCAACUGAAUGAAAUGGUGAAGGAGACGGUCGGGUCCAGGCACAAAAAUGUUGCCUGUUGAGUAGAGUGUGGGCUCCGUAACUAGUCGCGUCAC
modifications: listed as RNA, chemistry not fully specified
percent folded [3]: 81% | emission (em) [4]: 507 nm | excitation (ex) [4]: 472 nm | effect on DFHO fluorescence [5]: significantly enhancing its fluorescence | emission (em) [6]: 501 nm | excitation (ex) [6]: 450 nm

B2: dBroccoli: dimeric Broccoli, SEQ ID NO: 12 (nucleic acid)
chain: GAGACGGUCGGGUCCAUCUGAGACGGUCGGGUCCAGAUAUUCGUAUCUGUCGAGUAGAGUGUGGGCUCAGAUGUCGAGUAGAGUGUGGGCUC
modifications: listed as RNA, chemistry not fully specified
fluorescence of aptamer-expressing E. coli cells [7]: approximately twice as fluorescent as cells expressing Broccoli | fluorescence compared to monomeric Broccoli ([8]; in vitro transcribed tBroccoli and tdBroccoli in PAGE gel): almost twice the fluorescence as the monomeric Broccoli | detection in HEK293T cells of 5S fusions without tRNA scaffold ([9]; flow cytometry): can be detected in cells

B3: tdBroccoli: dBroccoli in tRNA scaffold, SEQ ID NO: 40 (nucleic acid)
chain: GCCCGGATAGCTCAGTCGGTAGAGCAGCGGAGACGGTCGGGTCCATCTGAGACGGTCGGGTCCAGATATTCGTATCTGTCGAGTAGAGTGTGGGCTCAGATGTCGAGTAGAGTGTGGGCTCCGCGGGTCCAGGGTTCAAGTCCCTGTTCGGGCGCCA
modifications: tdBroccoli
fold more fluorescent than tBroccoli ([8]; gel band intensity, normalized to molecular weight): ~1.8 fold | brighter than tBroccoli (mean fluorescence intensity of the green population) ([9]; 5S fusions, HEK293T, 40 μM DFHBI-1T): 70%
